# According to doi:10.1101/2023.11.17.567387:
# Biological target: C. elegans DPF-3 (C. elegans)
# Assay: cryo-EM structure
substance,measurement,value
C. elegans DPF-3 (enzyme),stoichiometry N,2
